# No end group written: not given here.
# Biological target: T1, recombinant mouse FAP (Mus musculus, UniProt P97321)
# T1 construct: (residues L26-D760 and L26-D761, respectively); octa-His (N); made in house; host or cells: transiently transfected CHO cells (conditioned media)
# T1 sequence (P97321 26-761): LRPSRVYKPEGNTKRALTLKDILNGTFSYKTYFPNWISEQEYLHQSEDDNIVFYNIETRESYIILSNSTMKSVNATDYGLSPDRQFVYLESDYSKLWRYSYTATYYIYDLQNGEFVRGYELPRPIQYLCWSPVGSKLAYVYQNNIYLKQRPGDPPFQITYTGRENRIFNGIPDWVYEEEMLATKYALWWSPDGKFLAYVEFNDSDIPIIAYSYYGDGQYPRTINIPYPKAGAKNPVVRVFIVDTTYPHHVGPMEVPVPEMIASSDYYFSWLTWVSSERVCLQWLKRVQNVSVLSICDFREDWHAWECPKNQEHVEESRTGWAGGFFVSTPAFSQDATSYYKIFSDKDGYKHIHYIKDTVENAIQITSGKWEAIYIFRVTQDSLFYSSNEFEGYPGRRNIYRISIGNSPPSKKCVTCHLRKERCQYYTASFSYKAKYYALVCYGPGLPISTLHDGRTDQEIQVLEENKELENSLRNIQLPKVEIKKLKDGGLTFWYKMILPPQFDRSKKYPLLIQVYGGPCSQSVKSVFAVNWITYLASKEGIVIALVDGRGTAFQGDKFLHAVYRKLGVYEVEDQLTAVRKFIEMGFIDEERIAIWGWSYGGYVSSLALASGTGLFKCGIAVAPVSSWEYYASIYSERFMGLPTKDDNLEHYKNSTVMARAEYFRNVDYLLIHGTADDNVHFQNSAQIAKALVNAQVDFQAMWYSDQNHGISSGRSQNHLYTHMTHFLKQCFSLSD
# Assay: FRET-quench assay: probe cleavage by recombinant mouse FAP
# Format: biochemical
# Details: 1 nM recombinant mouse FAP; 3 μM peptide
# Text: Human prolyl oligopeptidase (PREP, 4308-SE), DPPIV (1180-SE), DPP9 (5419-SE), and DPPII/DPP7 (3438-SE) proteins were purchased from R&D Systems. Human DPP8 (BML-SE527) protein was purchased from Enzo Life Sciences. N-terminal octa-His-tagged human and mouse FAP proteins containing the extracellular domain (residues L26-D760 and L26-D761, respectively) were purified from the conditioned media of transiently-transfected CHO cells, by immobilized metal affinity chromatography (IMAC), followed by size exclusion chromatography (SEC).
# Peptides of the region flanking the C-terminal human FGF21 cleavage site (VGPSQG) or a variant with D-alanine at P2 (VaPSQG) were synthesized (Anaspec, Inc.), containing an amine-terminal donor (HyLite Fluor 488 or Cy5.5 for aP NIRF) and a dark quencher-acceptor (QXL 520 or QSY21 for aP NIRF) conjugated to a supplementary C-terminal lysine. ANPFAP (Bioconjugate Chem 23:1704-11) and aP NIRF were synthesized by CPC Scientific (Sunnyvale, Calif.). Assays were conducted at 37° C. in 50 mM HEPES (pH 7.2), 150 mM NaCl, 1 mM EDTA, 0.1 mg/ml BSA. The excitation/emission wavelengths of cleaved peptide are 490/520 nm or 675/695 nm for ANPFAP and aP NIRF. Fluorescence was monitored on a Tecan M1000 Pro plate reader in kinetic mode. […]
substance,measurement,value
GP probe: human FGF21 cleavage-site peptide VGPSQG with amine-terminal HyLite Fluor 488 donor and QXL 520 quencher on supplementary C-terminal lysine ({HyLite Fluor 488}-VGPSQGK(QXL 520)),cleavage by recombinant mouse FAP,cleaved
